Drawing on article PMC8501957, this text covers Kd and stoichiometry N for two substances.

The assay has as its target MvaT F36D/M44D (P. aeruginosa) (UniProt Q9HW86). The assay can be described thus: ITC; gp4 injected into MvaT F36D/M44D in the cell; 20 C; 20 mM Bis-Tris pH 6, 50 mM KCl, 16 mM MgCl2; one set of sites model.

pKd: −log10 of the molar value.

gp4 K42E/K45E (natural protein): the pKd is 5.87 and the stoichiometry N was found to be 0.52.
On the same counts, the results for “gp4 of Pseudomonas phage LUZ24 (natural protein)” are 6.77 and 0.56.
